Assays:
[1] = biological target: T1, FsKHS (Fusarium phaseoli, UniProt Q00870); test: HPLC conversion assay with P. pastoris culture supernatant; assay type: biochemical; conditions: 2 mM kievitone, 35°C, culture supernatant of P. pastoris expressing FsKHS, mere turnover
T1 construct: gene khs; 19-residue signal peptide cleaved between Ala19 and Ser20; C-terminal His10 tag

[2] = tested on: COc1cc(O)c(CC=C(C)C)c(O)c1C(=O)/C=C/c1ccc(O)cc1; test: purified protein; conditions: 50 mM sodium citrate, pH 6.0, 35°C, 2% v/v ethanol, 0.05 mg/mL enzyme, apparent because of low XN solubility, water is co-substrate

T1 sequence (Q00870 20-350): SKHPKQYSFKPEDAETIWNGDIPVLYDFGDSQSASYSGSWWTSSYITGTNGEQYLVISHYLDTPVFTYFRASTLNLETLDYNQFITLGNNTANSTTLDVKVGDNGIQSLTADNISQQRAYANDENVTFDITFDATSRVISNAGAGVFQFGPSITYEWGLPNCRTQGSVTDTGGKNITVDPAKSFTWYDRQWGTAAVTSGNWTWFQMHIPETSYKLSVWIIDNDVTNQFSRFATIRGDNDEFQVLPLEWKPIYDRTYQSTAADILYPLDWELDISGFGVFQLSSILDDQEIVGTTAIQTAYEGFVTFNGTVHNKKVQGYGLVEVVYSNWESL

Compound	% substrate converted in 3 h [1]	Km [2] [µM]	kcat [2] [s⁻¹]
CC(C)=CCc1c(O)cc(O)c2c1OCC(c1ccc(O)cc1O)C2=O (stereo not drawn) [KV, kievitone]	~ 89%	–	–
NhKHS (Fusarium vanettenii 77-13-4)	–	980 ± 130	4.77 ± 0.33
